According to patent publication US20060188440A1 (FOX CHASE CANCER CENTER, published 2006):

T1: MISIIR expressed on IGROV-1 cells (UniProt Q16671 18-573, limits assumed)
T1 construct: whole, on cells; also called MIS type II receptor
T1 sequence (looked up): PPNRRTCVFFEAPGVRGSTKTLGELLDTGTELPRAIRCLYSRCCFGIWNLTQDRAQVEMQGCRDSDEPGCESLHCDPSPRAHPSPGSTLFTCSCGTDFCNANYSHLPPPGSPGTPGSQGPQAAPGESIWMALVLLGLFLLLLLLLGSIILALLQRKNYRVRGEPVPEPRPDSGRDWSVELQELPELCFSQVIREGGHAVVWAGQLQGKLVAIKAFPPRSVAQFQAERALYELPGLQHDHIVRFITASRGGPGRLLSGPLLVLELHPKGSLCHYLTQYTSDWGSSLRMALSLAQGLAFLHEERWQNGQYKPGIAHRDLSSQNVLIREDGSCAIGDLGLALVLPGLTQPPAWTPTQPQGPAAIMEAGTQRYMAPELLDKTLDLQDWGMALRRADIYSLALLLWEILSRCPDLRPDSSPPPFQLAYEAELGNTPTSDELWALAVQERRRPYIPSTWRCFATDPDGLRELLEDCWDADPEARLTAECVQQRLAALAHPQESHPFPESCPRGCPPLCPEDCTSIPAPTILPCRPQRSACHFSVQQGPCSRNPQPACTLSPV


Assays:
[1] = molecular target: T2, MISIIR-Fc ECD fusion protein (human, UniProt Q16671 18-149); assay: assay not named in the sentence (ELISA / SPR of Example 1)
T2 construct: extracellular domain; Two orientations were made (ECD 5' or 3' of Fc); The secretion signal from the vector is not part of the secreted protein; also called MISIIR-Fc fusion protein; MISIIR ECD; not shown: tobacco etch virus cleavage site between MISIIR and Fc; human IgG1 Fc domain; C-terminal c-myc tag and 6xHis tag from the pSecTag2/Hygro vector

[2] = molecular target: T2, MISIIR-Fc ECD fusion protein; assay: SPR (BIAcore 1000), MISIIR-Fc ECD on CM5 chip (600 RU), serially diluted scFv
Procedure: (§1) Surface plasmon resonance (SPR) technology was used to determine the binding of the anti-MISIIR molecules to MISIIR ECD. The SPR response reflects a change in the mass concentration as molecules bind or dissociate from an antigen immobilized on a sensor chip. These studies were performed on a BIAcore 1000 instrument. The MISIIR-Fc ECD fusion protein target antigen was coated on a CM5 chip at a concentration of 5,000 resonance units (RU). The anti-MISIIR antibody molecules were then flowed over the chip and the difference in the response units (RU) between the start point and the end was determined. A negative control protein (Fc) was coated on a chip at 4,800 RU and was used to rule out binding to the Fc portion of the MISIIR-Fc fusion protein. The association and dissociation rates, and the affinity of each molecule for MISIIR ECD were determined by passing serially diluted samples over an MISIIR-Fc ECD coated chip with a lower concentration of target antigen (600 RU) as per the BIAcore manufacturer's instructions. The evaluation of the data was done using BIAEvaluation 3.0 software.

[3] = molecular target: T2, MISIIR-Fc ECD fusion protein; assay: SPR (BIAcore 1000), chip coated with MISIIR (MISIIR-Fc ECD fusion protein), scFv-Fc flowed over; analyte concentration not given; time unit not given
Procedure: as §1

[4] = molecular target: T1, MISIIR expressed on IGROV-1 cells; assay: flow cytometry (FACS) on IGROV-1 cells, detection with fluorescein-conjugated goat anti-human IgG; concentration not given
Procedure: The binding of the antibodies was also tested in a standard fluorescence-activated cell sorter (FACS) assay.

Row | binding result [1] | Kd [2] | Binder | other results
1 | binds | – | M9 scFv antibody molecule (scFv) scFv: MAQVQLVQSGAEVKKPGASVKVSCKASGYTFTSYDINWVRQATGQGLEWMGWMNPNSGNTGYAQKFQGRVTMTRNTSTNTAYMELTSLTSEDTAVYYCARGSPSPMNVWGQGTTVTVSSGGGGSGGGGSGGGGSQPVLTQPHSVSESPGKTVTISCTRSSGSIANDYVQWFQQRPGSAPTIVIYEDYRRPSGVPDRFSGSIDSSSNSASLTISGLKTEDEADYYCQSYDSSNPYVVFGGGTKLTVLGQPKAAPSAAA | –
2 | – | 300 nM | anti-MISIIR scFv of clone #7 (scFv, Expressed from pCYN (pUC119mychis) with myc and His tags) scFv: MAQVQLVQSGTEVKRPGASVKISCRATGYTFSDYGISWMRQAPGQGLEWMGWISAYNGNTNYAQKLQGRVTMTTDTSTSTAYMELRSLRYDDTAVYYCARDGRRGSGIYWGVYYYNGMDVWGQGTTVTVSSGGGGSGGGGSGGGGSQPVLTQPPSASGTPGQRVTISCSGSRSNIGRNTVNWYQQVPGMAPKLLIYSNNQRPSGVPDRFSGSKSGTSASLAISGLQSEDEADYYCAAWDDSLNGVVFGGGTKLTVLGQPKAAP | –

Continued, binder first:

Row | Binder | binding result [1] | Kd [2] | other results
3 | scFv antibody molecule of clone #29 (scFv) scFv: MAQVQLVQSGGGLVQPGGSLRLSCAASGFTVSSNYMSWVRQAPGKGLEWVSAISGSGGSTYYADSVKGRFTISRDNSKNTLYLQMNSLRAEDTAVYYCATRPSRGSSGWYGGDYWGQGTLVTVSSGGGGSGGGGSGGGGSSYELTQPPSTSGTPGQRVTISCSGSTSNIATNNVNWYQFLPGTAPKLLMYRNDQRPAGVPDRFSGSKSGTSASLAISGLQPEDEADYYCAAWDDSLGGEVFGTGTKVNVLGQPKAAPSAA | binds | – | –
4 | GY4 scFv antibody molecule (scFv) scFv: MAQITLKESGPTLVKPTQTLTLTCTVSGFSLSNARMGVSWIRQPPGKALEWLALIYRDNDKRYNPSLKSRLTITKDTSKNQVVLTMSNMDPVDTATYYCAHSLVVPAANPFDYWGQGTLVTVSSSASGAELGGGGSGGGGSGGGGSTSQAVLTQPSSLSASPGASASLTCTLRSGINVGTYRIYWYQQKPGSPPQYLLRYKSDSDKQKGSGVPSRFSGSKDASANAGILLISGLQSEDEADYYCMIWHTSAYVFGTGTKVTVLGSS | binds | – | –
5 | anti-MISIIR scFv of clone #17 (scFv, Expressed from pCYN (pUC119mychis) in E. coli and purified by IMAC; It carries C-terminal myc and His tags) scFv: MAQVTLKESGPTLVKPTQTLTLTCTFSGFSLTTSGVGVGWIRQAPGKAPEWLALIDWDDDKYYSTSLKTRLTISKDTSKNQVVLTMTNMDPVDTATYYCARDSYYGSGSHFDFWGQGTLVTVSSGGGGSGGGGSGGGGSSYELTQPPSVSVSPGQTATITCSGHDLRNKYAHWYQQKPGQSPVLVVYQDAKRPSGIPERFSGSNSGNTATLTISGTQAMDEADYYCQTWDRSTVVFGGGTKLTVLGQPKAAPSAA | – | 90 nM | –
6 | scFv-Fc of clone #7 (Fc fusion, Bivalent fusion secreted from mammalian cells; The F105 VH / pelB leader is not part of the secreted protein; Copies '2' follows from 'bivalent'; also called sFv-IgG fusion protein; not shown: Human IgG1 hinge-CH2-CH3 of the hinge stuffer vector, and the junction to it) scFv: QVQLVQSGTEVKRPGASVKISCRATGYTFSDYGISWMRQAPGQGLEWMGWISAYNGNTNYAQKLQGRVTMTTDTSTSTAYMELRSLRYDDTAVYYCARDGRRGSGIYWGVYYYNGMDVWGQGTTVTVSSGGGGSGGGGSGGGGSQPVLTQPPSASGTPGQRVTISCSGSRSNIGRNTVNWYQQVPGMAPKLLIYSNNQRPSGVPDRFSGSKSGTSASLAISGLQSEDEADYYCAAWDDSLNGVVFGGGTKLTVL | – | – | binding result [3]: binds; binding result [4]: binds
